The record followed here is the nanobody polyreactivity screen of Harvey et al. (2022).

This series in a line: yeast display, Sf9 membrane polyspecificity reagent, FACS + sequencing; frameworks hold sequencing errors. The gist of the method:
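Nanobodies came from a synthetic yeast display library in Saccharomyces cerevisiae BJ5465, induced with galactose for 36–48 hours and stained for 1 hour at 4 °C with 10% biotinylated, detergent-solubilized Sf9 membrane reagent. Cells were enriched on streptavidin microbeads and then FACS-sorted, with low and high (top ~1%) gates set on anti-HA fluorescence for expression and streptavidin fluorescence for reagent binding. Each polyreactivity label reflects the gate a clone came from. Genes were amplified by colony PCR, sequenced by MiSeq 2 × 250 and filtered by CDR length.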
As for “QVQLVESGGGLVQAGGSLRLSSAASGRTFRWYTMGWYRQAPGKERELVAAISYSGGRTYYADSVKGRFTISRDNAKNTVYLQMNSLKPEDTAVYYCNKRGPSYWRYVETSEYYYWGQGTQVTVSS”, the “polyreactivity (PSR sort gate)” value is on record as “high polyreactivity”.
The value for “QVQLVESGGGLVQAGGSLRLSSAASGRTFWVYAMGCYRQAPGKESELVAAISRSGVSTYYADSVMGRFTISRDNAKNTVYLQMNSLKPEDTAVYYCAAPLIYTPLKYHYWGQGTQVTVSS” was “low polyreactivity”; that for “QVQLVESGGGLVQAGGSLRLSSAASGRTFYKYAMGWYRQAPGKERELVAAISWNGGSTYYADSVKGRFTISRDNAKNTVYLQMNSLKPEDTAVYYCNVVNQRSRTGDYWGQGTQVTVSS” was “high polyreactivity”.
As for “QVQLVESGGGLVQAGGSLRLSSAASGRTIDGNAMVWYRQAPGKEREWVATITRGGSTYYADSVKGRFTISRDNAKNTVYLQMNSLKPEDTSVYYCAARYYGRSQHHFDYWGQGTQVTVSS”, the entry is “high polyreactivity”; as for “QVQLVESGGGLVQAGGSLRLSSAASGRTLAGYAMGWYRQAPGKERELVAAISRSGGRTYYADSVKGRFTISRDNAKNSVYLQMNSLKPEDTAVYYCAADTRIEVYYWGQGTQVTVSS”, “high polyreactivity”.
The value for “QVQLVESGGGLVQAGGSLRLSSAASGSIFSTNEMGCYRQAPGKERELVAAISVSGGSTYYADSVKGRFTISRDNAKNTVYLQMNSLKPEDTALYYCNADYTRGTMYYWGQGTQVTVSS” was “low polyreactivity”.
Turning to “QVQLVESGGGLVQAGGSLRLSSAASGSIFTYYAMGGYRQAPGKEREFVAGISWSGGRTYYADSVKARFTISRDNAKNTGYLQMNSLKPEDTAVYYCNRQYRYIPSPFDYGGQGTQVTVSS”, the “polyreactivity (PSR sort gate)” value is given as “low polyreactivity”.
As for “QVQLVESGGGLVQAGGSLRLSSAASGSIFVRNAMGWYRQAPGKERELVAAITSRVGSTYYADSVKGRFTISRDNAKNTVYLQMNSLKPEDTAVYYCAVVFAKRAWSRYDYWGQGTQVTVSS”, the entry is “high polyreactivity”; as for “QVQLVESGGGLVQAGGSLRLSSAASGSIFYPYAMGWYRQAPGKARELVSTISWRGGSTYYADSVKGRFTISRDNAKNTDYVQMNRLKPEVTAVYYCAARKRPYSVINGMDYWGQGTQVTVSS”, “low polyreactivity”.
The value for “QVQLVESGGGLVQAGGSLRLSSAASGSIFYYYSMGWYRQAPGKERELVAAITRSGGSTYYADSVKGLFTISRDNAKNTVYLQMNSQKPEDTAVYYCAKDAHAYRDLDYWGQGTQVTVSS” was “low polyreactivity”; that for “QVQLVESGGGLVQAGGSLRLSSAASGSILYVYAMGWYRQAPGKERELVAVITSGGSTNYADSVKGRFTISRDNAKNTVYLQMNSLKPEDTAVYYCAADPYSVYGGDYWGQGTQVTVSS” was “low polyreactivity”; that for “QVQLVESGGGLVQAGGSLRLSSAASGSTFDYYAMGWYRQAPGKERELVAAISTSGSSTYYADSVKGRFTISGDNAKNTVYLQMNSLKPEDTAVYYCAAPIRYKGGYWGQGTQVTVSS” was “low polyreactivity”.
Consider “QVQLVESGGGLVQAGGSLRLSSAASGSTFLVYSMGWSRQAPGKERELVAAIRGAGSTNYADSVKGRFTISRDNAKNTVYLQMIRLKPEDTAVYYCAAYLLYTPSMDYWGQGTQVTVSS”, for which the “polyreactivity (PSR sort gate)” value is “low polyreactivity”.
The value for “QVQLVESGGGLVQAGGSLRLSSAASGSTFLYYAMGWYRQAPGKERELVATITDGGSTNYADSVKGRFTISRDNAKNTVYLQMNSLKPEDTAVYYCATDSYHYSYGYSSLPEYDYWGQGTQVTVSS” was “low polyreactivity”.
The value for “QVQLVESGGGLVQAGGSLRLSSAASGSTFLYYVMGWYRQARGKERELVAGITSRGASTYYADSVKGRFTFSRDNAKNTVYLQMNSLKPEDTAVYDCAKPGFTYPGRYNYWGQGTQVTVSS” was “high polyreactivity”; that for “QVQLVESGGGLVQAGGSLRLSSAASGSTFPNYAMGWYRQAPGKERELVAAITSSTGRTYYADSVKGRFTISRDTAKNSVYVPLHSLKPADTAVYYCNAEVYSDPYNDHDYWGQGTQVTVSS” was “low polyreactivity”.
On to “QVQLVESGGGLVQAGGSLRLSSAASGSTFRFNAKGWYRQAPGKERELVARISTIGGNTFYADSVKGRFTISRDNAKNTVYLQMNSLKTEDTAVYYCATTGGPSCRKYVYWGQGTQVTVSS”, for which the “polyreactivity (PSR sort gate)” value is reported as “high polyreactivity”.
The value for “QVQLVESGGGLVQAGGSLRLSSAASGSTFRKNAMGWYRQAPGKERELVASISISGGRTNYADSVKGRFTISRDNAKNTVYLQMNSLKPEDTAVYYCAKQVKSYRTRYTFDYWGQGTQVTVSS” was “high polyreactivity”; that for “QVQLVESGGGLVQAGGSLRLSSAASGSTFTFYAMGWYRQAPGKERELVATISWSTGTTYYADSVKGRFTISRDNAKNTVYLQMNSLKPEVTAVYYCAAPWSYRYDYWGQGTQVTVSS” was “low polyreactivity”; that for “QVQLVESGGGLVQAGGSLRLSSAASGSTFTSYAMGWYRQAPGNEWELVAAINSGGGTNYADSVKGRFTISRDNAKNTVYLQMNSLKPEDTAVYYCAKSRYDYTKTEGGYWGQGTQGTVSS” was “low polyreactivity”.
As for “QVQLVESGGGLVQAGGSLRLSSAASGSTFWFNAMGWYRQAPVKERELVAGISERGGRTYYADSVKGRFTISRDNAKNTVYLQMNRLKPEDPAVYYSNAGISPRRTTYYKYDYWGQGTQVNVSS”, the entry is “high polyreactivity”; as for “QVQLVESGGGLVQAGGSLRLSSAASGSTIYYYAMGLYRQAPGKEREFVATITQSGGSTYYADSVKGRFTISRDNAKNTVYLQMNSLKPEDTAVYYCAADSWEVDEADIYNSWGQGSQVTVSS”, “low polyreactivity”.
The value for “QVQLVESGGGLVQAGGSLRLSSAASRRIFSEYAMGWNRPEPGKERELVAAISKSGGRTYYADSVKGRFTISRDNAKNTVYFQMNSLKPEETAVDYCNARAVYPAGYAYDYWGQGTQVTVSS” was “high polyreactivity”.
As for “QVQLVESGGGLVQAGGSLRLSSAATGFTFDKYAMGWYRQAPGKERELVAASSGSGGTTYYADSVKGRFTISRDNAKNTVYLQMNSLKPEDTAVYYCATRLYSIYSYGYWGHGTQVTVSS”, the “polyreactivity (PSR sort gate)” value is listed as “high polyreactivity”.
The value for “QVQLVESGGGLVQAGGSLRLSSAATGGIFYSNAMGWYRQAPGKERELVAAITRSGTSTYYADSVKGRFTISRDNAKNTVYLQMNSLKPEDTAVYYCAADYRYRRSRGHVSKLYYWGQGTQGTVSS” was “low polyreactivity”.
The value for “QVQLVESGGGLVQAGGSLRLSSAATGSTSFQNAMGWYRQAPGKEREFVAAISGSGDRTNYADSVKGRFTISRDNAKNTVYLQMNSLIPEDTAVYYCAAVRGYPPTNYYYWGQGTQVTVSS” was “high polyreactivity”; that for “QVQLVESGGGLVQAGGSLRLSSADSGRIFRGYAMRLYRQAAGKVREFVAAISWGGGSKYYADSEKGRFTISRDNPKNTVYLQMNSLTPEDSAVYYCAAGSPYAYNYWGQGPQVTVSS” was “high polyreactivity”.
As for “QVQLVESGGGLVQAGGSLRLSSADSGSIFVYYAMGWYRQEPGKESELVATIRSSGARTYYADSVKGRFTISRDNAKNTVYLQINSLKPEDTAVYYCNARYVPYWAYGYGYWGQGTQVTVSS”, the entry is “high polyreactivity”.
In the case of “QVQLVESGGGLVQAGGSLRLSSAGSGSIFRVYALGWYRQAPGKERELVAVISIAGRTNYADSVKGRFTISRDNAKNTVYLQMNSLKPEDTAVYYCNAGGDGVATGYDYWGQGTQVTVSS”, the “polyreactivity (PSR sort gate)” value is given as “low polyreactivity”.
As for “QVQLVESGGGLVQAGGSLRLSSAGSGSTFIIYAMGWYRQAPGKERELVAAISWSGGSTYYADSVKGRFTISRDNAKNTVYLQMNSLKPEDTEVYYWAVVYRTRWSDYDYWGQGTQVTVSS”, the entry is “low polyreactivity”; as for “QVQLVESGGGLVQAGGSLRLSSAHSGFIFAHNARGRYRQAPGKERELVAAITSSGGSTYYADSVKGRFRISRDNAKNTVYLQMNSVKPEDTAVYYCNDYTYARRGYDEWGQGTQVTVSS”, “high polyreactivity”.
As for “QVQLVESGGGLVQAGGSLRLSSAPSGNTFYWYVMGWYRHAPGKERELVARINSSGGTTNYADSVKGRFTISRDNAKNTVYFQMNSLKPEVTAVYYCAADDIYLYGGGTDYYFCGQGTQVTVSS”, the entry is “low polyreactivity”.
The value for “QVQLVESGGGLVQAGGSLRLSSASSGSTFPGYTMRWYRPAPGKARELVAYITASDSSTYYADSEKGRFTISRDNAKNTVYLQINSLKPEDTAVYYSAKPPRHTWSFVDYRYEYWGQGTQGTVSS” was “low polyreactivity”; that for “QVQLVESGGGLVQAGGSLRLSSPASGRTFGRYTMGWYRQAPGKESELVATISYNGGRTYYADSVKGRFTISRDNAKNTVYLQMNSRKPEDTAVNYCATRLPKSSLHDYWGQGTQVTVSS” was “high polyreactivity”.
Consider “QVQLVESGGGLVQAGGSLRLSSPDSGLIFYLYAMGWYRQSHGKEREFVAAITSGGGSTYYADSVKGRFTISRDNAKNTVYLQINILIPEDTAVFYCAARLVLYITVVYEVDYWGQGTQVTVSS”, for which the “polyreactivity (PSR sort gate)” value is on record as “low polyreactivity”.
As for “QVQLVESGGGLVQAGGSLRLSSSASGRISGRNAMGWYRQAPGKERELVAVITRGDTNYADSVKGRFTISRDNAKNTVYLQMNSLKPEDTAVYYCAKEPLASGWGYDYWGQGTQVTVSS”, the entry is “high polyreactivity”; as for “QVQLVESGGGLVQAGGSLRLSWAASGFTFKYNAMGLYRQAHGKERELVAAISGSGGRTYYSDSVKGRFTISRDNAKNTVYLQMNSLKPEYTAVYYCAAVYLVTLGARYDYWGQGTQVTVSS”, “high polyreactivity”.
As for “QVQLVESGGGLVQAGGSLRLSWAASGFTFNRYAMGWYRQAPGKERELVAAISGSGASTYYADSVKGRFTISRDNAKNTVYLQMNSLKPEDTAVYYCATRYSRSYRSRDYYYWGQGTQVTVSS”, the entry is “high polyreactivity”; as for “QVQLVESGGGLVQAGGSLRLSWAASGFTFSVYAMGWYRQAPGKERELVAAISSGGSTNYADSVKGRFTISRDNAKITVYFQMNSLKPEDTAVYYCADSITVGYSNYYYWGQGSQVTVSS”, “high polyreactivity”.
For the sequence “QVQLVESGGGLVQAGGSLRLSWAASGGPFSSYDMGWYRQAPGTERELVADITNGGSTNFADSVKGRCTISRDNAKNTVYLQMNSLKPEDTAVYYCATDSYPGLNPDFDYWGHGTQVTVSS”, the “polyreactivity (PSR sort gate)” value is given as “low polyreactivity”.
As for “QVQLVESGGGLVQAGGSLRLSWAASGITFDDYAMGWYRPAPGKERELVAAITWSGDSTYYADSVKGRFTISRDNAKNTVYLQMNSLKPEDTAVYYCAAVSYYWGQGTQVTVSS”, the entry is “high polyreactivity”.
